What was measured:
[1] = target: T1, 3×MYC-STAT1-S727E phosphorylated at Y701 with JAK1 kinase (UniProt P42224 1-750, phosphorylated at Y701 with JAK1 kinase); assay: anti-FLAG IP of in vitro translated proteins, with JAK1 treatment, western
T1 construct: In vitro translated in rabbit reticulocyte lysate; not shown: 3×MYC tag
T1 sequence (looked up): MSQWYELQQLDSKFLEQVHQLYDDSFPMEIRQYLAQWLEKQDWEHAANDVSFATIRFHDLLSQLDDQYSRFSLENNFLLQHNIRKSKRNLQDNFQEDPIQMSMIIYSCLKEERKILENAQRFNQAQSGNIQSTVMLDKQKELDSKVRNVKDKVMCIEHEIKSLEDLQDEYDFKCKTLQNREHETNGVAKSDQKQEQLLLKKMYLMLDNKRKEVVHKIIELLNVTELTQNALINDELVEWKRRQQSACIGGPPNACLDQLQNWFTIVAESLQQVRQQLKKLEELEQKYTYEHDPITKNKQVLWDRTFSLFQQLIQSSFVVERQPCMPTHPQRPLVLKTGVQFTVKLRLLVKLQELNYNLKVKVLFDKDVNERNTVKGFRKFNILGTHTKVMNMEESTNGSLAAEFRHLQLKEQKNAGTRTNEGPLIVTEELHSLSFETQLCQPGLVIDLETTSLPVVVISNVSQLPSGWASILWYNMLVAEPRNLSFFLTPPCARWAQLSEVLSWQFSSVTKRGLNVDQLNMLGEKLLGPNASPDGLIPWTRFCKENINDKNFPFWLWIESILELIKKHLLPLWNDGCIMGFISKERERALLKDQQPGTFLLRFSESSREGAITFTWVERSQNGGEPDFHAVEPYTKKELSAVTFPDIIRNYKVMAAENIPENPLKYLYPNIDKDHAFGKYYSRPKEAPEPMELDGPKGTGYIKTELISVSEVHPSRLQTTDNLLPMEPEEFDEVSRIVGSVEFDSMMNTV

[2] = target: T2, Nucleolin (Homo sapiens, UniProt P19338 2-710); assay: anti-FLAG co-IP LC-MS, exp 4, +Dox +IFNG
T2 construct: also called NCL
T2 sequence (P19338 2-710 limits assumed): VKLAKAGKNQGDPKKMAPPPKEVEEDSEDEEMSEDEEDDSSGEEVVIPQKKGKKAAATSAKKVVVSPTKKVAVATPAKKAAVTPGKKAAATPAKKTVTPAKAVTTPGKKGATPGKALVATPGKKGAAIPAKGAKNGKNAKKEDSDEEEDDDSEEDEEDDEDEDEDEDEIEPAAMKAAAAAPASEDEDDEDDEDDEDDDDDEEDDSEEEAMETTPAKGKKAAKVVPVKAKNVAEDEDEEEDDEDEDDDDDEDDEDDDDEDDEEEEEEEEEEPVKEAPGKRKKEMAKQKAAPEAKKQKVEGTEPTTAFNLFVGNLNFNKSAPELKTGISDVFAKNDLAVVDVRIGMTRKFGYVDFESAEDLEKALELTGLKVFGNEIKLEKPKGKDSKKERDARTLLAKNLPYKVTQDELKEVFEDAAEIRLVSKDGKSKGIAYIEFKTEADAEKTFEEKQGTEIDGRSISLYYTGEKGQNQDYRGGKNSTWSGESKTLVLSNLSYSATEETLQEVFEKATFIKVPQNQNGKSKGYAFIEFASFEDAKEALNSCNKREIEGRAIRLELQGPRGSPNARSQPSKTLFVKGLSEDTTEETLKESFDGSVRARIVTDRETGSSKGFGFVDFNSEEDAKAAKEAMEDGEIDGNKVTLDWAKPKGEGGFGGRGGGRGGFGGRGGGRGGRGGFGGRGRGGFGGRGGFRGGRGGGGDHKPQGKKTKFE

[3] = target: T3, Heterogeneous nuclear ribonucleoprotein M (Homo sapiens, UniProt P52272 2-730); assay: anti-FLAG co-IP LC-MS, exp 4, +Dox +IFNG
T3 construct: also called HNRNPM
T3 sequence (looked up): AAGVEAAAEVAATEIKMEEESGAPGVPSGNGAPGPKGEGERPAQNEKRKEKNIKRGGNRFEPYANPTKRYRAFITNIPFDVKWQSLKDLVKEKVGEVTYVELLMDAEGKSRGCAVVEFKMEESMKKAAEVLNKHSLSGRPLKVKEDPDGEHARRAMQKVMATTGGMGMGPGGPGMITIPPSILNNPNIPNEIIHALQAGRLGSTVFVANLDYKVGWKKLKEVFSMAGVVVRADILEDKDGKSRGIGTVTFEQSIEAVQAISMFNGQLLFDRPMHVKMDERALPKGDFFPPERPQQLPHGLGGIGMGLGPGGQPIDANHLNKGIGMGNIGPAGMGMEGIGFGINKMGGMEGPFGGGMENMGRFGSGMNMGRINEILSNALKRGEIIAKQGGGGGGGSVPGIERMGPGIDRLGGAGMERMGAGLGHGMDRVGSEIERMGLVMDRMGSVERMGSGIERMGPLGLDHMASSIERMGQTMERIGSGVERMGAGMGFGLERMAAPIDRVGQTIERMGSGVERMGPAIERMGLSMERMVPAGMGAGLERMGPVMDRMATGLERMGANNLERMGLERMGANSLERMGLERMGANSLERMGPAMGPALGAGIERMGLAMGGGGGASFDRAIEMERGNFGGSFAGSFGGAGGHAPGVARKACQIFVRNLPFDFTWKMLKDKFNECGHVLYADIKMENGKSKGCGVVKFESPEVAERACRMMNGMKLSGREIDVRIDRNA

[4] = target: T4, Nuclease-sensitive element-binding protein 1 (Fragment) (Homo sapiens, UniProt P67809 2-324); assay: anti-FLAG co-IP LC-MS, exp 4, +Dox +IFNG
T4 construct: also called YBX1
T4 sequence (P67809 2-324 limits assumed): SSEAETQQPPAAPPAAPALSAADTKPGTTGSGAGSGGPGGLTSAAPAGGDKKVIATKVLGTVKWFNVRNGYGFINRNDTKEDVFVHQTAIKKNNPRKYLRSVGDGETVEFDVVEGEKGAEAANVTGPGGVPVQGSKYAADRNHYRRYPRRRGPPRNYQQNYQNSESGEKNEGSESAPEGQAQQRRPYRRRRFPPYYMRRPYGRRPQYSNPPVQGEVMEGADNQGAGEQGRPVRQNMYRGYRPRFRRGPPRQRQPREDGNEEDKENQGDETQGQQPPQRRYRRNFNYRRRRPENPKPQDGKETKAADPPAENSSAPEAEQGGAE

[5] = target: T5, DNA-dependent protein kinase catalytic subunit (Homo sapiens, UniProt P78527 1-4128); assay: anti-FLAG co-IP LC-MS, exp 4, +Dox +IFNG
T5 construct: also called PRKDC
T5 sequence (P78527 whole entry): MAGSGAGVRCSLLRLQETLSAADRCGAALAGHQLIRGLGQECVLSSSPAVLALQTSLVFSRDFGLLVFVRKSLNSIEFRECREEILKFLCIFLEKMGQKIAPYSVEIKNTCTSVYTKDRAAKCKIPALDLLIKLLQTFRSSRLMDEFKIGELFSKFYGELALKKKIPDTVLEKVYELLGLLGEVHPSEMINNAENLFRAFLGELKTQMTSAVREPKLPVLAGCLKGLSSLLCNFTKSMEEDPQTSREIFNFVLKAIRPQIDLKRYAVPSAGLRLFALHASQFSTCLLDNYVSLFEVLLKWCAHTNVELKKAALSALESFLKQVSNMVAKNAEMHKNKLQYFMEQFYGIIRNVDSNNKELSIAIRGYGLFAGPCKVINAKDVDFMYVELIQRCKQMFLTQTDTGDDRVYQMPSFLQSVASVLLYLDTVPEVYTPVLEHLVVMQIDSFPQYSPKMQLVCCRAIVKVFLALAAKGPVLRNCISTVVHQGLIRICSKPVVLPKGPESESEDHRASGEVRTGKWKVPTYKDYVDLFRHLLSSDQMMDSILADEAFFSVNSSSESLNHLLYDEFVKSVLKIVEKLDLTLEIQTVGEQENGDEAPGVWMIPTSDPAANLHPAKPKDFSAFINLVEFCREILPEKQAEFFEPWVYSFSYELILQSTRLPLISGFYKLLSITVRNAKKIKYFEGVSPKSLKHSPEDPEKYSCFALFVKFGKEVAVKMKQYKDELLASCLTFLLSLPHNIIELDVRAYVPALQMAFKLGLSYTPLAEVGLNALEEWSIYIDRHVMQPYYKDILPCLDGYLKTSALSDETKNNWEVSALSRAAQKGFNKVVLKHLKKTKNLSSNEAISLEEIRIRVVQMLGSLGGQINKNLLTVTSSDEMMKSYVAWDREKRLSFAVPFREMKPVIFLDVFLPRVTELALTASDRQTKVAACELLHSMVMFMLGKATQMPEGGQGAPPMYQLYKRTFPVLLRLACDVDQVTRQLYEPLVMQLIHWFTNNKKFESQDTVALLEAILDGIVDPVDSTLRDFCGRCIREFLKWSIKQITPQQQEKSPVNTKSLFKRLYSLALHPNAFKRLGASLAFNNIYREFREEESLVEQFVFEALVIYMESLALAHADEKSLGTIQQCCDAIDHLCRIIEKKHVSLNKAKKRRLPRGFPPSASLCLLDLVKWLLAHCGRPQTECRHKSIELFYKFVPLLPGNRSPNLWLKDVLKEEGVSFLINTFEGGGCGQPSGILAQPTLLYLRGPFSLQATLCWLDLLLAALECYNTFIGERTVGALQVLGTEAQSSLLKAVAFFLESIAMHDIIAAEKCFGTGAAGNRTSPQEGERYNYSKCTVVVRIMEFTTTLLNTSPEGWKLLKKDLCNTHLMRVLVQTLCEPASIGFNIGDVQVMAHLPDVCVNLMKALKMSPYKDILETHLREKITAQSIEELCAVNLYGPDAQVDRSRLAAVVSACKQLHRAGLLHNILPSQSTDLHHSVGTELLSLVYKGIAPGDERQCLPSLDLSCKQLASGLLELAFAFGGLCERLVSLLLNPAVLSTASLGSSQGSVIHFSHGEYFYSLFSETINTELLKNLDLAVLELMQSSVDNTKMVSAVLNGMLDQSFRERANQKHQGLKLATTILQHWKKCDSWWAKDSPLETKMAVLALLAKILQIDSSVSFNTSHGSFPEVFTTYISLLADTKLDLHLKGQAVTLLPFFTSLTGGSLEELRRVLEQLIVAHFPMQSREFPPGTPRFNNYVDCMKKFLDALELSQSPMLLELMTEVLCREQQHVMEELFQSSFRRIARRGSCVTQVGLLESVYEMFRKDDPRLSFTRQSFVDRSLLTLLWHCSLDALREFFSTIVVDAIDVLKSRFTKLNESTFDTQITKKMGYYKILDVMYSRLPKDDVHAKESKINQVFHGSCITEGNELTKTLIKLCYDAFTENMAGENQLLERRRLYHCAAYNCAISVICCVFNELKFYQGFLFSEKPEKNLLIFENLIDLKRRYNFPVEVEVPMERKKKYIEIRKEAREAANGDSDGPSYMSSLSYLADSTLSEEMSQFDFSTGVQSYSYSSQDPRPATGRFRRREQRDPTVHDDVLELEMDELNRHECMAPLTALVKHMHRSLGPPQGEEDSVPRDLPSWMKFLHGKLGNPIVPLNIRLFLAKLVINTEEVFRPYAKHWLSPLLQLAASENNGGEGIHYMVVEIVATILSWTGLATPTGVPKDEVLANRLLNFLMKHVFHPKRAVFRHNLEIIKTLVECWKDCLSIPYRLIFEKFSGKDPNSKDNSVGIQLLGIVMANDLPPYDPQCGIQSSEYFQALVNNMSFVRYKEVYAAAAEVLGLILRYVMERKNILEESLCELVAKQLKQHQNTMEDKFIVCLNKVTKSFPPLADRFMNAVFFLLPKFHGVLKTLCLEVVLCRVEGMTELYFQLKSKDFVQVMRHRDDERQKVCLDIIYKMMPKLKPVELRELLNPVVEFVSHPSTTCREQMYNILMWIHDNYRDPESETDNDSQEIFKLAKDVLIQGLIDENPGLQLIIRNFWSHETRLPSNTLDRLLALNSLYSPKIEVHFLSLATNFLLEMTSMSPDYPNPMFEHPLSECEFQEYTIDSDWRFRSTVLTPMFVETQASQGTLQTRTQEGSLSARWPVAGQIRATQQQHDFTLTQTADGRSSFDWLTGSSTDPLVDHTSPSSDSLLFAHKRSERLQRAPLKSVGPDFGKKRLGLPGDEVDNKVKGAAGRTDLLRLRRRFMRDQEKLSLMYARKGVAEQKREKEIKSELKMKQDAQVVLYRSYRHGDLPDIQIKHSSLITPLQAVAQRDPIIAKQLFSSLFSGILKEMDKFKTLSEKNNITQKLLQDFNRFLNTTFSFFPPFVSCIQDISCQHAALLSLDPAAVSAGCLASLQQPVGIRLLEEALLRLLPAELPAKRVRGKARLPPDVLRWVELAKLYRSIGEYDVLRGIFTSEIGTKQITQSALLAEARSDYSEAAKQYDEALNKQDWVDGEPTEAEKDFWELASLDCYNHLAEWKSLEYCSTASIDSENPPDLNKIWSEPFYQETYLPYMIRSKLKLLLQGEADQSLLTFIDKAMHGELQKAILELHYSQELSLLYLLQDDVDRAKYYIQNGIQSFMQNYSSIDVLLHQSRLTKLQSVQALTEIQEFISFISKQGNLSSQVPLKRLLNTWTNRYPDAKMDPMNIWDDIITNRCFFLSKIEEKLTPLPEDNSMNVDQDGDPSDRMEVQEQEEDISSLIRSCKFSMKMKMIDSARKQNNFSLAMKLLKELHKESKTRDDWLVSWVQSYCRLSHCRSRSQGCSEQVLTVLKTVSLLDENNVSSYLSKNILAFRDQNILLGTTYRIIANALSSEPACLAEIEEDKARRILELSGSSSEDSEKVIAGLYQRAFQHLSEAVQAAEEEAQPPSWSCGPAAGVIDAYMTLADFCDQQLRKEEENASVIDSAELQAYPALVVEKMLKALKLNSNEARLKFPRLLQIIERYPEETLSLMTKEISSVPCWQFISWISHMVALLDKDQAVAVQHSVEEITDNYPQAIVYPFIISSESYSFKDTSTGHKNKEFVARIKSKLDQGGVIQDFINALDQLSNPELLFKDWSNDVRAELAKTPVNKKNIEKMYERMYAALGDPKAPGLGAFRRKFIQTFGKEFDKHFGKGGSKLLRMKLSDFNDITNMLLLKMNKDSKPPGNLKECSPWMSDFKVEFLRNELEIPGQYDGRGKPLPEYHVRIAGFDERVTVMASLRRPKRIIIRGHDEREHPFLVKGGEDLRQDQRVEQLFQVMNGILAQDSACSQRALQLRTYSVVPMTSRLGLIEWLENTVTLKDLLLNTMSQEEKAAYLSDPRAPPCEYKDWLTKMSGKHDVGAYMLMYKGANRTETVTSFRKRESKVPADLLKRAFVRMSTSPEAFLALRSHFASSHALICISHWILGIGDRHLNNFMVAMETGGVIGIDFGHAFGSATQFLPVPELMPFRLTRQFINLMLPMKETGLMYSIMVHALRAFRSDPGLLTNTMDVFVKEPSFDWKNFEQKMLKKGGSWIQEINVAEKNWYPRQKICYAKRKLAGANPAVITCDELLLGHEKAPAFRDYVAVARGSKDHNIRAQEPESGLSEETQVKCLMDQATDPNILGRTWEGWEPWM

[6] = target: ATP-dependent RNA helicase DDX3X (Homo sapiens, UniProt O00571 2-662); assay: anti-FLAG co-IP LC-MS, exp 3, +Dox
[7] = target: T6, Cyclin-dependent kinase 4 (Homo sapiens, UniProt P11802 2-303); assay: anti-FLAG co-IP LC-MS, exp 3, +Dox
T6 construct: also called CDK4

[8] = target: T7, Heterogeneous nuclear ribonucleoprotein U (Homo sapiens, UniProt Q00839 2-825); assay: anti-FLAG co-IP LC-MS, exp 3, +Dox
T7 construct: also called HNRNPU; HNRPU

[9] = target: T8, Proteasome subunit alpha type (Homo sapiens); assay: anti-FLAG co-IP LC-MS, exp 3, +Dox
T8 construct: also called PSMA6

[10] = target: T3, Heterogeneous nuclear ribonucleoprotein …; assay: anti-FLAG co-IP LC-MS, exp 3, +Dox
[11] = target: T4, Nuclease-sensitive element-binding …; assay: anti-FLAG co-IP LC-MS, exp 3, +Dox
[12] = target: T9, Immunoglobulin kappa variable 2-40 (Homo sapiens); assay: anti-FLAG co-IP LC-MS, exp 3, +Dox
T9 construct: also called IGKV2-40

[13] = target: T5, DNA-dependent protein kinase catalytic …; assay: anti-FLAG co-IP LC-MS, exp 3, +Dox

B1: i3XFLAG-NLS-CTDaa154-424 (other)
chain: MDYKDHDGDYKDHDIDYKDDDDKPPKRMRREPKKKRKVGRAPAQAGGLCSAAPGGGHPAPSWVAFAHTGAWGTGLPAPHVPCAPGALPQGAFVSQAARAAPALQPSQAAPAEGISQPAPARGDFAYAAPAPPDGALSHPQAPRWPPHPGKSREDRDPQRDGLPGPCAVAQPGPAQAGPQGQGVLAPPTSQGSPWWGWGRGPQVAGAAWEPQAGAAPPPQPAPPDASASARQGQMQGIPAPSQALQEPAPWSALPCGLLLDELLASPEFLQQAQPLLETEAPGELEASEEAASLEAPLSEEEYRALLEEL
notes: Doxycycline-induced in MB135 cells for co-IP; also called longCTD; iDUX4-CTD
binding result [1]: no binding
PSMs [2]: 1 PSMs
PSMs [3]: 2 PSMs
PSMs [4]: 7 PSMs
PSMs [5]: 2 PSMs
PSMs [6]: 29 PSMs
PSMs [7]: 1 PSMs
PSMs [8]: 4 PSMs
PSMs [9]: 1 PSMs
PSMs [10]: 9 PSMs
PSMs [11]: 5 PSMs
PSMs [12]: 2 PSMs
PSMs [13]: 3 PSMs
